# Test results reported in patent US20260242478A1 (published 2026).
# Where no end group is shown, it is not given here.
# B1: Phage-670 (peptide)
# peptide: YCEGHAPQYIQKCL
# notes: Clonal phage of the Peptide-87 library
# B2: Phage-678 (peptide)
# peptide: YCEGHLPIYMDKCL
# notes: as for B1
# B3: Phage-679 (peptide)
# peptide: YCDGHAIEYMQKCL
# notes: as for B1
# B4: Phage-681 (peptide)
# peptide: YCQGHMPEYMDKCL
# notes: as for B1
# B5: Phage-675 (peptide)
# peptide: YCEGHADIYMQKCL
# notes: as for B1
# B6: Phage-680 (peptide)
# peptide: YCAGHIEEYMWKCL
# notes: as for B1
# B7: Phage-672 (peptide)
# peptide: YCDGHLPAYMAKCL
# notes: as for B1
# B8: Phage-674 (peptide)
# peptide: YCEGHAPEYMMKCI
# notes: as for B1
# B9: Phage-673 (peptide)
# peptide: YCEGHSDEYMLKCL
# notes: as for B1
# B10: Phage-671 (peptide)
# peptide: YCDGHELRYMAKCL
# notes: as for B1
# B11: Phage-682 (peptide)
# peptide: YCDGHAPEYVMKCL
# notes: as for B1
# B12: Phage-677 (peptide)
# peptide: YCDGHAPQYMGKCL
# notes: as for B1
# B13: Phage-676 (peptide)
# peptide: YCEGHSAEYMNKCL
# notes: as for B1
# B14: Phage-658 (peptide, not shown: large carriers)
# peptide: YCEGHTAEYLQKCL
# notes: Clonal phage supernatant of the Peptide-87 library
# B15: Phage-664 (peptide, not shown: large carriers)
# peptide: YCEGHAPEHMAKCL
# notes: as for B14
# B16: Phage-662 (peptide, not shown: large carriers)
# peptide: YCMGHLPQYMEKCL
# notes: as for B14
# B17: Phage-660 (peptide, not shown: large carriers)
# peptide: YCSGHLPEYMEKCL
# notes: as for B14
# B18: Phage-669 (peptide, not shown: large carriers)
# peptide: YCAGHLPEYIDKCL
# notes: as for B14
# B19: Phage-668 (peptide, not shown: large carriers)
# peptide: YCDGHAQEFMSKCL
# notes: as for B14
# B20: Phage-657 (peptide, not shown: large carriers)
# peptide: YCAGHLPEHIGKCL
# notes: as for B14
# B21: Phage-667 (peptide, not shown: large carriers)
# peptide: YCEGHSMQHMAKCL
# notes: as for B14
# B22: Phage-659 (peptide, not shown: large carriers)
# peptide: YCAGHSPEYMGKCM
# notes: as for B14
# B23: Phage-665 (peptide, not shown: large carriers)
# peptide: YCDGHAEQYMEKCL
# notes: as for B14
# B24: Phage-661 (peptide, not shown: large carriers)
# peptide: YCAGHLEIYMQKCL
# notes: as for B14
# B25: Phage-666 (peptide, not shown: large carriers)
# peptide: YCEGHSPEYMSHCF
# notes: as for B14
# B26: Phage-663 (peptide, not shown: large carriers)
# peptide: YCEGHSAEYMWKCL
# notes: as for B14
# B27: Phage-698 (peptide)
# peptide: YCAGHLPEYMMKCL
# modifications: cysteine pairing not given here; also: displayed on phage by fusion to pIII, pIII and linker sequence not given here
# B28: Phage-697 (peptide)
# peptide: YCDGHSPMYIGKCL
# modifications: cysteine pairing not given here; also: displayed on phage by fusion to pIII, pIII and linker sequence not given here
# B29: Phage-696 (peptide)
# peptide: YCEGHAPQYIAKCL
# modifications: cysteine pairing not given here; also: displayed on phage by fusion to pIII, pIII and linker sequence not given here
# B30: Phage-690 (peptide)
# peptide: YCEGHAPQHMDKCL
# B31: Phage-695 (peptide)
# peptide: YCSGHLPEYMSKCL
# B32: Phage-693 (peptide)
# peptide: YCLGHAPQYIQKCL
# B33: Phage-688 (peptide)
# peptide: YCDGHLIEYMEKCL
# B34: Phage-689 (peptide)
# peptide: YCEGHAIQYMSKCL
# B35: Phage-683 (peptide)
# peptide: YCDGHVGEYMQKCL
# B36: Phage-692 (peptide)
# peptide: YCDGHFREYMQKCL
# B37: Phage-684 (peptide)
# peptide: YCDGHSAQYMHKCL
# B38: Phage-694 (peptide)
# peptide: YCDGHSSEYMWKCL
# B39: Phage-687 (peptide)
# peptide: YCDGHASEYMMKCL
# B40: Phage-685 (peptide)
# peptide: YCEGHAPEYMYKCL
# B41: Phage-691 (peptide)
# peptide: YCEGHSPQYMSKCL
# B42: Phage-686 (peptide)
# peptide: YCDGHLPEYQMKCL
# Molecular target: T1, Anti-CD28 Fab (SEQ ID NOs: 696, 697)
# T1 construct: Biotinylated and captured on neutravidin coated plates in the phage ELISA
# Assay: phage ELISA on plate-bound anti-CD28 Fab, wells pre-incubated with CD28 antigen as competitor
# T1 sequence (VH, as listed by the source, chain 1 of 2): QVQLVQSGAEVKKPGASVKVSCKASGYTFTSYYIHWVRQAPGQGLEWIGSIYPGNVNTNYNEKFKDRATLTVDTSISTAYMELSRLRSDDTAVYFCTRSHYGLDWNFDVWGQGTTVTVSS
# T1 sequence (VL, as listed by the source, chain 2 of 2): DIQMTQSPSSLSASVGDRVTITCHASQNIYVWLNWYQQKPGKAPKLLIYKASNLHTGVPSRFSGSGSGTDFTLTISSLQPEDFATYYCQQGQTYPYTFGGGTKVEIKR
# Procedure: (§1) After panning, phage infected bacteria were plated out and colonies picked into 96 well blocks. Clonal phage was then amplified and separated from bacterial cells via centrifugation.
# (§2) Clonal phage were harvested as crude supematants and screened via standard ELISAs. […] Prior to the addition of clonal phage, wells were incubated with blocking buffer and CD28 antigen or blocking buffer alone. Without washing or aspirating, clonal phage supematants were then added to the wells and incubated for a short time. Wells were then washed followed by detection of bound phage using a horse radish conjugated anti-M13 antibody. Clonal phage of interest were then sent for sequence analysis.
row,Binder,Anti-CD28 Fab signal in the presence of CD28 (phage binding ELISA)
1,B1,0.07
2,B2,0.08
3,B3,0.07
4,B4,0.07
5,B5,0.07
6,B6,0.06
7,B7,0.12
8,B8,0.06
9,B9,0.07
10,B10,0.07
11,B11,0.1
12,B12,0.08
13,B13,0.07

# Molecular target: T2, Anti-CD28 Fab (SEQ ID NOs: 696, 697)
# T2 construct: Biotinylated and captured on neutravidin coated plates in the phage ELISA
# Assay: phage binding ELISA on anti-CD28 Fab plate pre-incubated with CD28 antigen as competitor; anti-M13 HRP detection
# T2 sequence (VH, as listed by the source, chain 1 of 2): as the sequence (VH, as listed by the source, chain 1 of 2) above
# T2 sequence (VL, as listed by the source, chain 2 of 2): as the sequence (VL, as listed by the source, chain 2 of 2) above
# Procedure: as §1, §2
row,Binder,Anti-CD28 Fab signal in the presence of CD28 (phage binding ELISA)
1,B14,0.1
2,B15,0.1
3,B16,0.08
4,B17,0.09
5,B18,0.08
6,B19,0.12
7,B20,0.07
8,B21,0.08
9,B22,0.06
10,B23,0.07
11,B24,0.08
12,B25,0.09
13,B26,0.09

# Molecular target: Anti-CD28 Fab (SEQ ID NOs: 696, 697)
# Assay: phage binding ELISA; captured anti-CD28 Fab pre-incubated with CD28 antigen as competitor, anti-M13 HRP detection
# Target sequence in this assay (VH, as listed by the source, chain 1 of 2): as the sequence (VH, as listed by the source, chain 1 of 2) above
# Target sequence in this assay (VL, as listed by the source, chain 2 of 2): as the sequence (VL, as listed by the source, chain 2 of 2) above
row,Binder,Anti-CD28 Fab signal in the presence of CD28
1,B27,0.11
2,B28,0.07
3,B29,0.08

# Molecular target: T3, Anti-CD28 Fab (SEQ ID NOs: 696, 697)
# T3 construct: In the phage ELISA the Fab was biotinylated and captured on neutravidin coated plates
# Assay: phage binding ELISA on captured anti-CD28 Fab; competitor: CD28 antigen pre-incubated in the wells
# T3 sequence (VH, as listed by the source, chain 1 of 2): as the sequence (VH, as listed by the source, chain 1 of 2) above
# T3 sequence (VL, as listed by the source, chain 2 of 2): as the sequence (VL, as listed by the source, chain 2 of 2) above
# Procedure: as §1, §2
row,Binder,Anti-CD28 Fab signal in the presence of CD28 (phage binding ELISA)
1,B30,0.08
2,B31,0.09
3,B32,0.14
4,B33,0.06
5,B34,0.06
6,B35,0.08
7,B36,0.06
8,B37,0.06
9,B38,0.06
10,B39,0.06
11,B40,0.07
12,B41,0.07
13,B42,0.08

# Molecular target: T1, Anti-CD28 Fab (SEQ ID NOs: 696, 697)
# Assay: phage ELISA; biotinylated anti-CD28 Fab on neutravidin plate, clonal phage supernatant, anti-M13 HRP detection;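 also: crude supernatants of single phage clones picked after panning were screened for binding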
# Procedure: as §1, §2
row,Binder,Anti-CD28 Fab signal (phage binding ELISA)
1,B1,2.07
2,B2,2.06
3,B3,2.05
4,B4,2.05
5,B5,2.06
6,B6,2.05
7,B7,2.06
8,B8,2.06
9,B9,2.06
10,B10,2.07
11,B11,2.05
12,B12,2.06
13,B13,2.06

# Molecular target: T3, Anti-CD28 Fab (SEQ ID NOs: 696, 697)
# Assay: phage binding ELISA; biotinylated anti-CD28 Fab on neutravidin plate, bound phage detected with anti-M13-HRP
# Procedure: as §1, §2
row,Binder,Anti-CD28 Fab signal (phage binding ELISA)
1,B30,2.04
2,B31,2.03
3,B32,2.04
4,B33,2.04
5,B34,2.04
6,B35,2.05
7,B36,2.04
8,B37,2.05
9,B38,2.03
10,B39,2.05
11,B40,2.05
12,B41,2.04
13,B42,2.05

# Molecular target: Anti-CD28 Fab (SEQ ID NOs: 696, 697)
# Assay: phage binding ELISA; biotinylated anti-CD28 Fab on neutravidin plate, clonal phage supernatant, anti-M13 HRP detection
# Target sequence in this assay (VH, as listed by the source, chain 1 of 2): as the sequence (VH, as listed by the source, chain 1 of 2) above
# Target sequence in this assay (VL, as listed by the source, chain 2 of 2): as the sequence (VL, as listed by the source, chain 2 of 2) above
row,Binder,"Anti-CD28 Fab (SEQ ID NOs: 696, 697) signal"
1,B27,2.03
2,B28,2.03
3,B29,2.03

# Molecular target: T2, Anti-CD28 Fab (SEQ ID NOs: 696, 697)
# Assay: as above
row,Binder,Anti-CD28 Fab signal (phage binding ELISA)
1,B14,2.09
2,B15,2.08
3,B16,2.08
4,B17,2.09
5,B18,2.07
6,B19,2.07
7,B20,2.09
8,B21,2.07
9,B22,2.09
10,B23,2.08
11,B24,2.09
12,B25,2.08
13,B26,2.08
